# Experimental data reported in the supplement of paper PMC7877785.
# ± gives the uncertainty stated by the source.
# Assay: self-splicing fitness, log relative to wild type (ln ratio); higher = more splicing; Tetrahymena group I intron in knt gene, E. coli kanamycin selection, DiMSum; sequences stand for … in CUCUCU…GGAGGGAAAAGUUAUCAGGCAUGCACCUGGUAGCUAGUCUUUAAACCAAUAGAUUGCAUCGGUUUAAAAGGCAAGACCGUCAAAUUGCGGGAAAGGGGUCAACAGCCGUUCAGUACCAAGUCUCAGGGGAAACUUUGAGAUGGCCUUGCAAAGGGUAUGGUAAUAAGCUGACGGACAUGGUCCUAACCACGCAGCCAAGUCCUAAGUCAACAGAUCUUCUGUUGAUAUGGAUGCAGUUCACAGACUAAAUGUCGGUCGGGGAAGAUGUAUUCUUCUCAUAAGAUAUAGUCGGACCUCUCCUUAAUGGGAGCUAGCGGAUGAAGUGAUGCAACACUGGAGCCGCUGGGAACUAAUUUGUAUGCGAAAGUAUAUUGAUUAGUUUUGGAGUACUCGUGGUCG
# Method in brief: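 Library with all eight P1ex-region intron nucleotides randomised, intron inside the knt kanamycin-resistance gene on pET-22b(+), in E. coli BL21(DE3). Cells grew overnight at 37°C or 30°C on LB agar with or without 25 μg/mL kanamycin (plus 100 μg/mL carbenicillin, 50 μM IPTG, 0.2% rhamnose), in six replicate transformations. Pooled colonies were amplicon-sequenced on Illumina HiSeq 2500. DiMSum fitness is the error-weighted combination of wild-type-normalised replicate fold changes, kanamycin versus none.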
Sequence,self-splicing fitness (ln) (30 °C),self-splicing fitness (ln) (37 °C)
AAAAAGCAAUAUUACGAAAA,-2.26 ± 0.17,-0.664 ± 0.14
AAAAAGCAAUAUUACGAAGU,-2.08 ± 0.13,-0.998 ± 0.15
AAAAAGCAAUAUUACGACGG,-1.76 ± 0.17,-1.12 ± 0.21
AAAAAGCAAUAUUACGACUA,-0.0366 ± 0.1,0.028 ± 0.1
AAAAAGCAAUAUUACGAGUA,-1.68 ± 0.12,-0.884 ± 0.11
AAAAAGCAAUAUUACGCACA,-0.661 ± 0.067,-0.183 ± 0.087
AAAAAGCAAUAUUACGCAGA,-2.35 ± 0.15,-1.86 ± 0.14
AAAAAGCAAUAUUACGCAGG,-2.42 ± 0.15,-1.03 ± 0.14
AAAAAGCAAUAUUACGCAGU,-1.99 ± 0.15,-2.19 ± 0.2
AAAAAGCAAUAUUACGCCCC,-0.356 ± 0.25,0.308 ± 0.34
AAAAAGCAAUAUUACGCCCG,-0.481 ± 0.16,0.243 ± 0.23
AAAAAGCAAUAUUACGCGAA,-2.07 ± 0.12,-1.19 ± 0.16
AAAAAGCAAUAUUACGCUUA,-1.36 ± 0.13,-0.916 ± 0.12
AAAAAGCAAUAUUACGGAAC,-2.97 ± 0.16,-1.77 ± 0.2
AAAAAGCAAUAUUACGGACG,-0.378 ± 0.064,0.25 ± 0.084
AAAAAGCAAUAUUACGGCGG,-1.18 ± 0.059,-0.131 ± 0.077
AAAAAGCAAUAUUACGGGCG,-0.625 ± 0.075,-0.721 ± 0.091
AAAAAGCAAUAUUACGGUCC,-0.603 ± 0.084,0.0637 ± 0.11
AAAAAGCAAUAUUACGUCCA,-0.18 ± 0.076,0.113 ± 0.11
AAAAAGCAAUAUUACGUCUC,-1.51 ± 0.078,-0.62 ± 0.093
AAAAAGCAAUAUUACGUGAG,-0.91 ± 0.056,-0.523 ± 0.092
AAAAAGCAAUAUUACGUGGG,-3.51 ± 0.13,-2.03 ± 0.13
AAAAAGCAAUAUUACGUUAC,-2.57 ± 0.14,-1.91 ± 0.15
AAAAAGCAAUAUUACGUUUC,-2.04 ± 0.13,-3.26 ± 0.28
AAAAAGCAAUAUUACGUUUU,-2.42 ± 0.13,-2.39 ± 0.14
AAACAGCAAUAUUACGAACG,-2.5 ± 0.12,-0.625 ± 0.12

Sequence,self-splicing fitness (ln) (30 °C),self-splicing fitness (ln) (37 °C)
AAACAGCAAUAUUACGACAU,-0.514 ± 0.011,-0.112 ± 0.032
AAACAGCAAUAUUACGAGGC,-3.32 ± 0.17,-3.12 ± 0.28
AAACAGCAAUAUUACGCAAA,-2.87 ± 0.12,-1.75 ± 0.1
AAACAGCAAUAUUACGCGAA,-1.95 ± 0.096,-1.43 ± 0.11
AAACAGCAAUAUUACGCGAC,-2.77 ± 0.21,-1.68 ± 0.14
AAACAGCAAUAUUACGCGAU,-2.98 ± 0.16,-2.42 ± 0.17
AAACAGCAAUAUUACGCGUU,-3.11 ± 0.11,-1.1 ± 0.1
AAACAGCAAUAUUACGCUCU,-0.653 ± 0.085,0.413 ± 0.086
AAACAGCAAUAUUACGGAGG,-4.68 ± 0.36,-1.86 ± 0.2
AAACAGCAAUAUUACGGAUC,-2.82 ± 0.11,-1.73 ± 0.11
AAACAGCAAUAUUACGGAUG,-3.43 ± 0.16,-3 ± 0.2
AAACAGCAAUAUUACGGAUU,-1.67 ± 0.068,-0.362 ± 0.079
AAACAGCAAUAUUACGGCUA,-0.275 ± 0.064,-0.0695 ± 0.076
AAACAGCAAUAUUACGUCCU,-0.281 ± 0.07,0.347 ± 0.094
AAACAGCAAUAUUACGUUAA,-2.66 ± 0.11,-0.816 ± 0.092
AAACAGCAAUAUUACGUUAU,-2.23 ± 0.072,-1.22 ± 0.085
AAACAGCAAUAUUACGUUUU,-3.81 ± 0.11,-3 ± 0.15
AAAGAGCAAUAUUACGAACA,-2.07 ± 0.35,-2.02 ± 0.4
AAAGAGCAAUAUUACGACAG,-3.56 ± 0.3,-2.86 ± 0.36
AAAGAGCAAUAUUACGACCG,-3.83 ± 0.18,-2.5 ± 0.19
AAAGAGCAAUAUUACGACCU,-1.39 ± 0.15,-0.748 ± 0.16
AAAGAGCAAUAUUACGACUA,-2.38 ± 0.3,-1.12 ± 0.25
AAAGAGCAAUAUUACGAUGG,-3.63 ± 0.33,-1.89 ± 0.25
AAAGAGCAAUAUUACGAUGU,-2.08 ± 0.17,-1.37 ± 0.23
AAAGAGCAAUAUUACGAUUU,-0.695 ± 0.14,0.468 ± 0.13
AAAGAGCAAUAUUACGCCGG,-3.8 ± 0.42,-2.53 ± 0.24

Sequence,self-splicing fitness (ln) (30 °C),self-splicing fitness (ln) (37 °C)
AAAGAGCAAUAUUACGCCUG,-2.57 ± 0.28,-1.76 ± 0.33
AAAGAGCAAUAUUACGCGAU,-2.63 ± 0.35,-2.04 ± 0.34
AAAGAGCAAUAUUACGCGGA,-3.29 ± 0.33,-2.33 ± 0.22
AAAGAGCAAUAUUACGCUCC,-2.57 ± 0.3,-2 ± 0.41
AAAGAGCAAUAUUACGGAAA,-2.38 ± 0.26,-2.53 ± 0.41
AAAGAGCAAUAUUACGGACA,-2.68 ± 0.3,-1.81 ± 0.32
AAAGAGCAAUAUUACGGCUA,-1.28 ± 0.11,-1.13 ± 0.13
AAAGAGCAAUAUUACGGGUA,-2.81 ± 0.26,-1.88 ± 0.27
AAAGAGCAAUAUUACGGGUG,-3.95 ± 0.21,-1.88 ± 0.19
AAAGAGCAAUAUUACGGGUU,-3.43 ± 0.16,-2.78 ± 0.21
AAAGAGCAAUAUUACGGUAA,-1.74 ± 0.3,-1.67 ± 0.26
AAAGAGCAAUAUUACGGUUU,-2.16 ± 0.11,-1.06 ± 0.12
AAAGAGCAAUAUUACGUAAC,-3.77 ± 0.31,-2.88 ± 0.43
AAAGAGCAAUAUUACGUAUG,-3.72 ± 0.25,-2.06 ± 0.17
AAAUAGCAAUAUUACGAAGG,-2.61 ± 0.21,-1.45 ± 0.27
AAAUAGCAAUAUUACGACAC,-1 ± 0.11,0.319 ± 0.12
AAAUAGCAAUAUUACGACCA,-0.537 ± 0.12,-0.525 ± 0.17
AAAUAGCAAUAUUACGACCU,-0.0682 ± 0.092,0.265 ± 0.13
AAAUAGCAAUAUUACGACGA,-0.696 ± 0.099,-0.228 ± 0.14
AAAUAGCAAUAUUACGACUA,-0.367 ± 0.12,0.06 ± 0.13
AAAUAGCAAUAUUACGAUGU,-1.21 ± 0.078,-0.875 ± 0.089
AAAUAGCAAUAUUACGCAUU,-2.89 ± 0.14,-1.52 ± 0.12
AAAUAGCAAUAUUACGCCCC,-1.71 ± 0.32,0.0438 ± 0.38
AAAUAGCAAUAUUACGCGGC,–,-2.2 ± 0.42
